Binding signal (fold increase in Kd vs WT) and Kd data for 3 sequences are collected here from article PMC7948458.

Test in all cases: EMSA
A general note: In EMSA bound probe runs differently from free probe, usually more slowly.

The target in data set [1] is OGG1 C140S C140S (UniProt O15527). As to conditions: 8-oxoguanine at position 16 of strand 1, opposite C; EMSA: 0.1 nM DNA, 0.5-4000 nM OGG1, 25 mM Tris-HCl pH 7.6, 175 nM NaCl (sic), 1 mM EDTA, 1 mM DTT, 300 ug/ml BSA, 12% glycerol, 15 min, 4 C.
OGG1 C140S C140S, sequence (O15527 whole entry C140S): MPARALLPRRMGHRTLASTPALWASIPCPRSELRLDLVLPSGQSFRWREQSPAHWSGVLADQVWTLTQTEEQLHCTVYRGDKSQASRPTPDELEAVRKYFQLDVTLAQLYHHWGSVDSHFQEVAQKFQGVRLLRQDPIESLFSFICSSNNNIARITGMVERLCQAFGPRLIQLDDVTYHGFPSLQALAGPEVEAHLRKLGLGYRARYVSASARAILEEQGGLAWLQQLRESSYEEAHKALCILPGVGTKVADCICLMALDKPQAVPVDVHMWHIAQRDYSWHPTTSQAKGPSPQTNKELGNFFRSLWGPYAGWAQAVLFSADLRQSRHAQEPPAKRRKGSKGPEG
Data set [2] concerns the target OGG1 C146S C146S (UniProt O15527). As to conditions: EMSA: 0.1 nM DNA, 0.5-4000 nM OGG1, 25 mM Tris-HCl pH 7.6, 175 nM NaCl (sic), 1 mM EDTA, 1 mM DTT, 300 ug/ml BSA, 12% glycerol, 15 min, 4 C.
For data set [3], the target named is OGG1 C241S C241S (UniProt O15527). As to conditions: EMSA: 0.1 nM DNA, 0.5-4000 nM OGG1, 25 mM Tris-HCl pH 7.6, 175 nM NaCl (sic), 1 mM EDTA, 1 mM DTT, 300 ug/ml BSA, 12% glycerol, 15 min, 4 C.
OGG1 C241S C241S, sequence (O15527 whole entry C241S): as the sequence (O15527 whole entry C140S) above, with S140C, C241S counted along it
Data set [4] addresses OGG1 C253S C253S (UniProt O15527). As to conditions: 8-oxoguanine at position 16 of strand 1, opposite C; EMSA: 0.1 nM DNA, 0.5-4000 nM OGG1, 25 mM Tris-HCl pH 7.6, 175 nM NaCl (sic), 1 mM EDTA, 1 mM DTT, 300 ug/ml BSA, 12% glycerol, 15 min, 4 C.
Data set [5] addresses OGG1 C255S C255S (UniProt O15527). As to conditions: 8-oxoguanine at position 16 of strand 1, opposite C; EMSA: 0.1 nM DNA, 0.5-4000 nM OGG1, 25 mM Tris-HCl pH 7.6, 175 nM NaCl (sic), 1 mM EDTA, 1 mM DTT, 300 ug/ml BSA, 12% glycerol, 15 min, 4 C.
Data set [6] deals with OGG1 C28S C28S (UniProt O15527). As to conditions: EMSA: 0.1 nM DNA, 0.5-4000 nM OGG1, 25 mM Tris-HCl pH 7.6, 175 nM NaCl (sic), 1 mM EDTA, 1 mM DTT, 300 ug/ml BSA, 12% glycerol, 15 min, 4 C.
OGG1 C28S C28S, sequence (O15527 whole entry C28S): as the sequence (O15527 whole entry C140S) above, with C28S, S140C counted along it
Data set [7] deals with OGG1 WT (UniProt O15527). As to conditions: EMSA: 0.1 nM DNA, 0.5-4000 nM OGG1, 25 mM Tris-HCl pH 7.6, 175 nM NaCl (sic), 1 mM EDTA, 1 mM DTT, 300 ug/ml BSA, 12% glycerol, 15 min, 4 C.
OGG1 WT, sequence (O15527 whole entry): as the sequence (O15527 whole entry C140S) above, with S140C counted along it
[8] abbreviates: 8-oxoguanine at position 16 of strand 1, opposite C.
Where [9] appears, read: tetrahydrofuran abasic analog at position 16 of strand 1 (written N), opposite base Y is C or A, not stated for this assay (written N).

OGG1 C146S C146S, sequence (O15527 whole entry C146S): as the sequence (O15527 whole entry C140S) above, with S140C, C146S counted along it
OGG1 C255S C255S, sequence (O15527 whole entry C255S): as the sequence (O15527 whole entry C140S) above, with S140C, C255S counted along it
OGG1 C253S C253S, sequence (O15527 whole entry C253S): as the sequence (O15527 whole entry C140S) above, with S140C, C253S counted along it

By Kd is commonly meant the concentration at which binding is half-saturated. Low values mean higher affinity, high ones lower affinity. As to “CGTTCAACGTGCACTGACAGCACGTCCCAT (double strand) [8-oxoG:C 30-mer duplex]”, the binding signal (fold increase in Kd vs WT) in data set [1], in data set [2] (setting [8]), in data set [3] (setting [8]), in data set [4], in data set [5] and in data set [6] (setting [8]) was 10 throughout. In addition, in data set [7] (setting [8]), the Kd came to 1.9 nM.
For “CGTTCAACGTGCACTNACAGCACGTCCCAT (double strand) [THF 30-mer duplex]”, the Kd in data set [2] (setting [9]) turned out to be 9.9 nM; in data set [3] (setting [9]) it was 3.5 nM; in data set [6] (setting [9]), 2.2 nM; in data set [7] (setting [9]) it was 0.6 nM.
As to “CGTTCAACGTGCACTGACAGCACGTCCCAT / ATGGGACGTGCTGTAAGTGCACGTTGAACG [8-oxoG:A 30-mer duplex]”, the Kd in data set [7] (8-oxoguanine at position 16 of strand 1, opposite A) was 201 nM. In other words, the sub-micromolar range.
